Eight sequences from the supplement of paper PMC11316812 can be followed below.

± gives the standard deviation of the averaged measurements.

One series concerns MCF7. The experiment in a line: percentage of EdU-negative (G0-arrested) nuclei per well, 72 h; higher = more G0 arrest. The conditions noted are these: reference: sequence is the full UniProt precursor, the tested protein was the secreted form or ectodomain.
A further series concerns hTERT-HMEC. The description is as above. The conditions noted are these: reference: sequence is the full UniProt precursor, the tested protein was the secreted form or ectodomain.
[1] abbreviates: protein concentration 0.028295 µM.
The mark [2] stands for this setting: protein concentration 0.28295 µM.
[3] abbreviates: protein concentration 0.0225 µM.
Where [4] appears, read: protein concentration 0.0211825 µM.
Setting [5] is: protein concentration 0.211825 µM.
[6] abbreviates: protein concentration 0.0165575 µM.
Setting [7] is: protein concentration 0.165575 µM.
Where [8] appears, read: protein concentration 0.03125 µM.
Where [9] appears, read: protein concentration 0.3125 µM.
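Also: secreted proteins added to cultured cells, EdU pulse at the end, nuclei found by Hoechst imaging, EdU status from nuclear versus surrounding ring intensity ratio, PBS as neutral control.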

With “MAPPQVLAFGLLLAAATATFAAAQEECVCENYKLAVNCFVNNNRQCQCTSVGAQNTVICSKLAAKCLVMKAEMNGSKLGRRAKPEGALQNNDGLYDPDCDESGLFKAKQCNGTSMCWCVNTAGVRRTDKDTEITCSERVRTYWIIIELKHKAREKPYDSKSLRTALQKEITTRYQLDPKFITSILYENNVITIDLVQNSSQKTQNDVDIADVAYYFEKDVKGESLFHSKKMDLTVNGEQLDLDPGQTLIYYVDEKAPEFSMQGLKAGVIAVIVVVVIAVVAGIVVLVISRKKRMAKYEKAEIKEMGEMHRELNA”, the “percentage of EdU-negative” value was determined as 26.6 ± 1.3% in the series on MCF7 (setting [1]), 26.1 ± 0.38% in the series with MCF7 (setting [2]), 4.24 ± 0.27% in the series with hTERT-HMEC (setting [1]) and 7.81 ± 1.4% in the series on hTERT-HMEC (setting [2]).
Regarding “MGRPRPRAAKTWMFLLLLGGAWAGHSRAQEDKVLGGHECQPHSQPWQAALFQGQQLLCGGVLVGGNWVLTAAHCKKPKYTVRLGDHSLQNKDGPEQEIPVVQSIPHPCYNSSDVEDHNHDLMLLQLRDQASLGSKVKPISLADHCTQPGQKCTVSGWGTVTSPRENFPDTLNCAEVKIFPQKKCEDAYPGQITDGMVCAGSSKGADTCQGDSGGPLVCDGALQGITSWGSDPCGRSDKPGVYTNICRYLDWIKKIIGSKG”, the “percentage of EdU-negative” value in the series with MCF7 (setting [3]) worked out at 26.4 ± 2.5%; in the series with MCF7 (protein concentration 0.225 µM), 24.6 ± 0.69%; with hTERT-HMEC (setting [3]), 4.99 ± 0.28%; in the series on hTERT-HMEC (protein concentration 0.225 µM) it was 5.28 ± 0.5%.
Turning to “MARVLGAPVALGLWSLCWSLAIATPLPPTSAHGNVAEGETKPDPDVTERCSDGWSFDATTLDDNGTMLFFKGEFVWKSHKWDRELISERWKNFPSPVDAAFRQGHNSVFLIKGDKVWVYPPEKKEKGYPKLLQDEFPGIPSPLDAAVECHRGECQAEGVLFFQGDREWFWDLATGTMKERSWPAVGNCSSALRWLGRYYCFQGNQFLRFDPVRGEVPPRYPRDVRDYFMPCPGRGHGHRNGTGHGNSTHHGPEYMRCSPHLVLSALTSDNHGATYAFSGTHYWRLDTSRDGWHSWPIAHQWPQGPSAVDAAFSWEEKLYLVQGTQVYVFLTKGGYTLVSGYPKRLEKEVGTPHGIILDSVDAAFICPGSSRLHIMAGRRLWWLDLKSGAQATWTELPWPHEKVDGALCMEKSLGPNSCSANGPGLYLIHGPNLYCYSDVEKLNAAKALPQPQNVTSLLGCTH”, the “percentage of EdU-negative” value in the series on MCF7 (setting [4]) worked out at 26.5 ± 0.3%; in the series on MCF7 (setting [5]), 26.7 ± 0.95%; in the series on hTERT-HMEC (setting [4]), 5.25 ± 0.85%; in the series with hTERT-HMEC (setting [5]), 6.11 ± 0.9%.
Consider “MLALLAASVALAVAAGAQDSPAPGSRFVCTALPPEAVHAGCPLPAMPMQGGAQSPEEELRAAVLQLRETVVQQKETLGAQREAIRELTGKLARCEGLAGGKARGAGATGKDTMGDLPRDPGHVVEQLSRSLQTLKDRLESLEHQLRANVSNAGLPGDFREVLQQRLGELERQLLRKVAELEDEKSLLHNETSAHRQKTESTLNALLQRVTELERGNSAFKSPDAFKVSLPLRTNYLYGKIKKTLPELYAFTICLWLRSSASPGIGTPFSYAVPGQANEIVLIEWGNNPIELLINDKVAQLPLFVSDGKWHHICVTWTTRDGMWEAFQDGEKLGTGENLAPWHPIKPGGVLILGQEQDTVGGRFDATQAFVGELSQFNIWDRVLRAQEIVNIANCSTNMPGNIIPWVDNNVDVFGGASKWPVETCEERLLDL”, for which the “percentage of EdU-negative” value was 24.1 ± 0.47% in the series on MCF7 (setting [3]), 24.8 ± 0.78% with MCF7 (protein concentration 0.225 µM), 5.346 ± 0.033% in the series with hTERT-HMEC (setting [3]) and 6.28 ± 1.3% with hTERT-HMEC (protein concentration 0.225 µM).
Regarding “MGLLSAPPCTQRITWKGLLLTASLLNFWNPPTTAQVTIEAQPTKVSEGKDVLLLVHNLPQNLTGYIWYKGQIRDLYHYITSYVVDGQIIIYGPAYSGRETIYSNASLLIQNVTQEDAGSYTLHIIMGGDENRGVTGHFTFTLYLETPKPSISSSKLNPREAMEAVSLTCDPETPDASYLWWMNGQSLPMSHRLQLSETNRTLFLLGVTKYTAGPYECEIRNPVSASRSDPFTLNLLPKLPKPYITINNLKPRENKDVLNFTCEPKSENYTYIWWLNGQSLPVSPRVKRPIENRILILPSVTRNETGPYQCEIRDQYGGIRSYPVTLNVLYGPDLPRIYPSFTYYRSGEVLYLSCSADSNPPAQYSWTINGKFQLSGQKLFIPQITTKHSGLYACSVRNSATGKESSKSMTVKVSGKRIPVSLAIGI [Q9UQ74]”, the “percentage of EdU-negative” value with MCF7 (setting [6]) was 26.7 ± 1%; with MCF7 (setting [7]), 31.5 ± 1.5%; in the series with hTERT-HMEC (setting [6]) it was 4.16 ± 0.38%; in the series with hTERT-HMEC (setting [7]) it was 6.44 ± 0.53%.
Consider “MWPLWRLVSLLALSQALPFEQRGFWDFTLDDGPFMMNDEEASGADTSGVLDPDSVTPTYSAMCPFGCHCHLRVVQCSDLGLKSVPKEISPDTTLLDLQNNDISELRKDDFKGLQHLYALVLVNNKISKIHEKAFSPLRKLQKLYISKNHLVEIPPNLPSSLVELRIHDNRIRKVPKGVFSGLRNMNCIEMGGNPLENSGFEPGAFDGLKLNYLRISEAKLTGIPKDLPETLNELHLDHNKIQAIELEDLLRYSKLYRLGLGHNQIRMIENGSLSFLPTLRELHLDNNKLARVPSGLPDLKLLQVVYLHSNNITKVGVNDFCPMGFGVKRAYYNGISLFNNPVPYWEVQPATFRCVTDRLAIQFGNYKK”, for which the “percentage of EdU-negative” value came out at 25.3 ± 1.7% in the series with MCF7 (setting [8]), 25.1 ± 3.1% in the series on MCF7 (setting [9]), 4.62 ± 0.74% in the series on hTERT-HMEC (setting [8]) and 7.32 ± 0.21% in the series on hTERT-HMEC (setting [9]).
Turning to “MASRWAVQLLLVAAWSMGCGEALKCYTCKEPMTSASCRTITRCKPEDTACMTTLVTVEAEYPFNQSPVVTRSCSSSCVATDPDSIGAAHLIFCCFRDLCNSEL”, the “percentage of EdU-negative” value was found to be 23.5 ± 2.8% in the series on MCF7 (setting [3]), 26.6 ± 1.9% with MCF7 (protein concentration 0.225 µM), 5.43 ± 0.94% in the series with hTERT-HMEC (setting [3]) and 5.61 ± 1% in the series on hTERT-HMEC (protein concentration 0.225 µM).
As to “MCSRGWDSCLALELLLLPLSLLVTSIQGHLVHMTVVSGSNVTLNISESLPENYKQLTWFYTFDQKIVEWDSRKSKYFESKFKGRVRLDPQSGALYISKVQKEDNSTYIMRVLKKTGNEQEWKIKLQVLDPVPKPVIKIEKIEDMDDNCYLKLSCVIPGESVNYTWYGDKRPFPKELQNSVLETTLMPHNYSRCYTCQVSNSVSSKNGTVCLSPPCTLARSFGVEWIASWLVVTVPTILGLLLT”, the “percentage of EdU-negative” value in the series with MCF7 (setting [3]) amounted to 25.8 ± 1.1%; in the series with MCF7 (protein concentration 0.225 µM) it was 27.8 ± 2%; with hTERT-HMEC (setting [3]), 4.77 ± 0.31%; in the series with hTERT-HMEC (protein concentration 0.225 µM) it was 10.71 ± 0.089%.
